Reference: US20220257796A1

Each substance was assayed against CD46 (human) (UniProt P15529) (assay: Kd of fiber knob to CD46, Table 1 (method not given)).
UniProt P15529, sequence (P15529 35-343 limits assumed): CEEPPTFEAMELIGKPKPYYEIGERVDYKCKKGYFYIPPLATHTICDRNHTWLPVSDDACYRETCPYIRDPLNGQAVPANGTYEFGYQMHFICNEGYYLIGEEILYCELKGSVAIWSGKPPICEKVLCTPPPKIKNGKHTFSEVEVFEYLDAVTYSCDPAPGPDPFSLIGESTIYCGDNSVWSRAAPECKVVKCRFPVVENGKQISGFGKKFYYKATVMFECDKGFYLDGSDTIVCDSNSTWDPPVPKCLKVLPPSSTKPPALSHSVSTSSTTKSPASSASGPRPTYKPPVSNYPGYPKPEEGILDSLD

Substance	Kd
Ad11 (fiber knob) (from UniProt P33681)	11.2 nM
Ad35 fiber knob mutant A8: Ile192Val Ile256Val (from UniProt Q92854)	13.7 nM
Ad35 fiber knob mutant B4: Thr245Ala (from UniProt Q8NHJ6)	7.64 nM
Ad35 fiber knob mutant B5: Ile256Leu (from UniProt P46977)	11 nM
